Target: T1, wild-type CXCL12 (Homo sapiens (Human), UniProt P48061 22-89)
T1 construct: also called CXCL12WT; WT
Assay: 125I-CXCL12 displacement from CXCR4
Method: A) The affinity of CXCL12 variants for CXCR4 was determined by ¹²⁵I-CXCL12 displacement. […] C) Intracellular calcium mobilization of cells stimulated by 10 nM CXCL12 variants was measured in the presence or absence of the Gαi inhibitor, pertussis toxin (PTX). From Drury, PNAS, 2011.

T1 sequence (P48061 22-89 limits assumed): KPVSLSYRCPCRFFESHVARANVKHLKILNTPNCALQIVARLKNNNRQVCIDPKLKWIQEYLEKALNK

Kd: 25 nM
B1: CXC chemokine receptor 4 (CXCR4) (receptor, UniProt P61073 1-352, looked up)
chain: MEGISIYTSDNYTEEMGSGDYDSMKEPCFREENANFNKIFLPTIYSIIFLTGIVGNGLVILVMGYQKKLRSMTDKYRLHLSVADLLFVITLPFWAVDAVANWYFGNFLCKAVHVIYTVNLYSSVLILAFISLDRYLAIVHATNSQRPRKLLAEKVVYVGVWIPALLLTIPDFIFANVSEADDRYICDRFYPNDLWVVVFQFQHIMVGLILPGIVILSCYCIIISKLSHSKGHQKRKALKTTVILILAFFACWLPYYIGISIDSFILLEIIKQGCEFENTVHKWISITEALAFFHCCLNPILYAFLGAKFKTSAQHALTSVSRGSSLKILSKGKRGGHSSVSTESESSSFHSS

Reference: patent US20210162009A1 (MEDICAL COLLEGE OF WISCONSIN, published 2021)
